The values that follow come from PMC9870165, “Structure and neutralization mechanism of a human antibody targeting a complex Epitope on Zika virus” (PLOS Pathogens, 2023).

For assay [1], the target named is T1, recombinant ZIKV E protein (ectodomain of Zika virus envelope glycoprotein E) (Zika virus; PDB 8DV6 source …).
T1 construct: also called soluble E; E-dimer
Kind of assay: crystal structure; recombinant ZIKV E and G9E Fab mixed 1:1.2 at room temperature for 30 min, complex purified on Superdex 200-increase; crystals in 100 mM HEPES pH 7.5, 10% (w/v) PEG 8000; 3.4 Å. The settings on record: both partners purified.

For assay [2], the target named is T2, ZIKV E protein on wild-type Zika virus H/PF/2013 in culture supernatant (Zika virus strain H/PF/2013, UniProt A0A024B7W1).
T2 construct: also called WT ZIKV; ZIKV H/PF/2013; source: ZIKV in culture supernatant
Kind of assay: ELISA; ZIKV capture ELISA: virus (WT or rZIKV-D67N) in culture supernatant captured by plate-bound mAb 4G2; mAbs added 1 h at 37°C; anti-human Fc alkaline phosphatase; signal normalized to ZKA-190. Particulars: one partner purified. Background: In an ELISA, binding on a coated surface is turned into a signal by an enzyme label.

B1: G9E Fab (antigen binding fragment of human monoclonal antibody G9E, wild type) (Fab, V domains shown)
VH: RVHLVESGGGVVQPGRSLRLSCVASGFAFSNYHMHWVRQAPGKGLEWVAIIWDDGSDQYYADSVKGRFTISRDNSKNTLFLQMNRLRAEDTALYYCVGGSSAYNGDNGWREAASLDDWGQGTLVTVSS
VL: QSALTQPASVSGSPGQSITIFCSGSSNDVGGYNYVSWYQQYPGKVPKLLIYDVNSRPSGVSNRFSGSKSGNTASLTISGLQAEDEADYYCSSYTSRRTWVFGGGTIVTVL
notes: also called Fab G9E; G9E WT
On to B1, for which, in assay [1], the binding result is “binds”.

B2: HuZV-67, humanized version of the ZIKV specific mouse EDIII mAb ZV-67, IgG1 format (antibody, V domains shown)
VH: QAQLQQSGTGLARPGASVKLSCKASGYTFTSYGISWVTQRAGQGLEWIGVIYPRSGNTYYNEKFRGKATLTADKSSSSAYMELRGLTAEDSAVYFCARENYGSVYWGQGTTLTVSS
VL: DIVMTQSQKFMSTSVGDRVSITCKASQNVGTAVAWYQQKPGQSPKLLIYSASNRYTGVPDRFTGSGSGTDFTLTISNMQSEDLADYFCQQFSSYPYTFGGGTKLEIK
notes: IgG1; source: Expi293, purified (MabSelect resin)
On to B2, for which the binding result in assay [2] is recorded as “binds”.
